From patent US20260266848A1, “COMPOSITIONS AND METHODS FOR DIAGNOSING AND TREATING DYSTONIA” (Duke University, priority 2023, published 2026)

Tests used:
WT MEF EVs = test: Quantitative LC-MS/MS proteomics of EVs from ISRIB-treated WT MEF cultures; assay type: cell-based, mouse; design: key to ISRIB and DYT Parallel Direction / ISRIB and DYT Parallel Direction, Ctdsp1 / ISRIB and DYT Parallel Direction, Pcdh19 / ISRIB and DYT Parallel Direction, Tspan7 / ISRIB and DYT Parallel Direction, Myo1e / ISRIB and DYT Parallel Direction, Plpp3 / ISRIB and DYT Parallel Direction, Sh3bp4 / ISRIB and DYT Parallel Direction, Dnajc7 / ISRIB and DYT Parallel Direction, Drg1 / ISRIB and DYT Parallel Direction, Maea: YES = protein abundance effect similar to DYT/WT; details: EV protein abundance; for WT + ISRIB/WT Cohen's d: ISRIB-treated WT vs WT; for ISRIB and DYT Parallel Direction: WT + ISRIB vs WT, direction compared with DYT/WT
DYT-TOR1A MEF EVs = test: Quantitative LC-MS/MS proteomics of EVs from drug-treated DYT-TOR1A MEF cultures (ritonavir, salubrinal); assay type: cell-based, mouse; design: key to RTV Corrective Direction / RTV Corrective Direction, Grwd1 / RTV Corrective Direction, Srrm2 / RTV Corrective Direction, Rbm17 / RTV Corrective Direction, Dcaf8 / RTV Corrective Direction, Edil3 / RTV Corrective Direction, Timp3 / RTV Corrective Direction, Heatr3 / RTV Corrective Direction, Brd4 / RTV Corrective Direction, P3h4 / RTV Corrective Direction, Pacsin3 / RTV Corrective Direction, Naa50 / RTV Corrective Direction, Lpar6 / RTV Corrective Direction, Ndrg1 / RTV Corrective Direction, Kntc1 / RTV Corrective Direction, Cdk11b / RTV Corrective Direction, Sumo1 / RTV Corrective Direction, Lsm4 / RTV Corrective Direction, Hmga2 / RTV Corrective Direction, Cstf1 / RTV Corrective Direction, Tes / RTV Corrective Direction, Sbno1 / RTV Corrective Direction, Unc119b / RTV Corrective Direction, Cfdp1 / RTV Corrective Direction, Sec61b: YES = protein abundance effect opposite to DYT/WT; details: EV protein abundance; for RTV Corrective Direction: DYT + RTV (ritonavir) vs DYT, direction compared with DYT/WT; for DYT + RTV/DYT Cohen's d: ritonavir (RTV)-treated DYT vs DYT

B1: Lipg (protein, UniProt Q9WVG5 21-500, looked up)
Endothelial lipase: SITTLRPQGSLRDEHHKPTGVPATARPSVAFNIRTSKDPEQEGCNLSLGDSKLLENCGFNMTAKTFFIIHGWTMSGMFESWLHKLVSALQMREKDANVVVVDWLPLAHQLYTDAVNNTRVVGQRVAGMLDWLQEKEEFSLGNVHLIGYSLGAHVAGYAGNFVKGTVGRITGLDPAGPMFEGVDINRRLSPDDADFVDVLHTYTLSFGLSIGIRMPVGHIDIYPNGGDFQPGCGFNDVIGSFAYGTISEMVKCEHERAVHLFVDSLVNQDKPSFAFQCTDSSRFKRGICLSCRKNRCNNIGYNAKKMRKKRNSKMYLKTRAGMPFKVYHYQLKVHMFSYNNSGDTQPTLYITLYGSNADSQNLPLEIVEKIELNATNTFLVYTEEDLGDLLKMRLTWEGVAHSWYNLWNEFRNYLSQPSNPSRELYIRRIRVKSGETQRKVTFCTQDPTKSSISPGQELWFHKCQDGWKMKNKTSPFVNLA
WT + ISRIB/WT Cohen's d (WT MEF EVs): −2.47
ISRIB and DYT Parallel Direction (WT MEF EVs): YES
RTV Corrective Direction (DYT-TOR1A MEF EVs): YES
DYT + RTV/DYT Cohen's d (DYT-TOR1A MEF EVs): 2.88

B2: Gmpr2 (protein, UniProt Q99L27 1-348, looked up)
GMP reductase 2: MPHIDNDVKLDFKDVLLRPKRSTLKSRSEVELTRSFSFRNSKQMYSGIPVIAANMDTVGTFEMARVLCKFSLFTAIHKHYSIHQWQEFASQNPDCLECLAASSGSGSADFEQLEQILEAIPQVKYICLDVANGYSEHFVEFVKDVRKRFPQHTIMAGNVVTGEMVEELILSGADIIKVGIGPGSVCTTRKKTGVGYPQLSAVMECADAAHGLKGHIISDGGCSCPGDVAKAFGAGADFVMLGGMLAGHSESGGELIERDGKKYKLFYGMSSEMAMKKYSGGVAEYRASEGKIVEVPFKGDVEHTIRDILGGIRSTCTYVGAAKLKELSRRTTFIRVTQQVNPIFSNSQ
WT + ISRIB/WT Cohen's d (WT MEF EVs): −2.98
ISRIB and DYT Parallel Direction (WT MEF EVs): YES
RTV Corrective Direction (DYT-TOR1A MEF EVs): YES
DYT + RTV/DYT Cohen's d (DYT-TOR1A MEF EVs): 5.10

B3: Hnrnpf (protein, UniProt Q9Z2X1 1-415, looked up)
Heterogeneous nuclear …: MMLGPEGGEGYVVKLRGLPWSCSIEDVQNFLSDCTIHDGVAGVHFIYTREGRQSGEAFVELESEDDVKLALKKDRESMGHRYIEVFKSHRTEMDWVLKHSGPNSADSANDGFVRLRGLPFGCTKEEIVQFFSGLEIVPNGITLPVDPEGKITGEAFVQFASQELAEKALGKHKERIGHRYIEVFKSSQEEVRSYSDPPLKFMSVQRPGPYDRPGTARRYIGIVKQAGLDRMRSGAYSAGYGGYEEYSGLSDGYGFTTDLFGRDLSYCLSGMYDHRYGDSEFTVQSTTGHCVHMRGLPYKATENDIYNFFSPLNPVRVHIEIGPDGRVTGEADVEFATHEEAVAAMSKDRANMQHRYIELFLNSTTGASNGAYSSQVMQGMGVSAAQATYSGLESQSVSGCYGAGYSGQNSMGGYD
WT + ISRIB/WT Cohen's d (WT MEF EVs): −0.18
ISRIB and DYT Parallel Direction (WT MEF EVs): YES
RTV Corrective Direction (DYT-TOR1A MEF EVs): YES
DYT + RTV/DYT Cohen's d (DYT-TOR1A MEF EVs): 8.04

B4: Ssbp1 (protein, UniProt Q9CYR0 17-152, looked up)
Single-stranded DNA-binding …: ESEVASSLVLERSLNRVQLLGRVGQDPVMRQVEGKNPVTIFSLATNEMWRSGDSEVYQMGDVSQKTTWHRISVFRPGLRDVAYQYVKKGARIFVEGKVDYGEYMDKNNVRRQATTIIAGKKLVVHSVSGCSLEGLA
WT + ISRIB/WT Cohen's d (WT MEF EVs): −1.49
ISRIB and DYT Parallel Direction (WT MEF EVs): YES
RTV Corrective Direction (DYT-TOR1A MEF EVs): YES
DYT + RTV/DYT Cohen's d (DYT-TOR1A MEF EVs): 3.30

B5: Shmt2 (protein, UniProt Q9CZN7 30-504, looked up)
Serine …: KVAQTQAGEAAGGWTGQESLSDSDPEMWELLQREKDRQCRGLELIASENFCSRAALEALGSCLNNKYSEGYPGKRYYGGAEVVDEIELLCQRRALEAFDLDPAQWGVNVQPYSGSPANLAAYTALLQPHDRIMGLDLPDGGHLTHGYMSDVKRISATSIFFESMPYKLNPQTGLIDYDQLALTARLFRPRLIIAGTSAYARLIDYARMREVCDEVRAHLLADMAHISGLVAAKVIPSPFKYADVVTTTTHKTLRGARSGLIFYRKGVRTVDPKTGKEIPYTFEDRINFAVFPSLQGGPHNHAIAAVAVALKQACTPMFREYSLQVLRNAQAMADALLKRGYSLVSGGTDTHLVLVDLRPKGLDGARAERVLELVSITANKNTCPGDRSAITPGGLRLGAPALTSRQFREDDFRRVVDFIDEGVNIGLEVKRKTAKLQDFKSFLLKDPETSQRLANLRQQVEQFARGFPMPGFDER
WT + ISRIB/WT Cohen's d (WT MEF EVs): −1.44
ISRIB and DYT Parallel Direction (WT MEF EVs): YES
RTV Corrective Direction (DYT-TOR1A MEF EVs): YES
DYT + RTV/DYT Cohen's d (DYT-TOR1A MEF EVs): 8.98

B6: Plaa (protein, UniProt P27612 1-794, looked up)
Phospholipase A-2-activating …: MASGASRYRLSCSLPGHELDVRGLVCCLYPPGAFVSVSRDRTTRLWAPDSPNRGFTEMHCMSGHSNFVSCVCIIPSSDIYPHGLIATGGNDHNICIFSLDSPMPLYILKGHKDTVCSLSSGKFGTLLSGSWDTTAKVWLNDKCMMTLQGHTAAVWAVKILPEQGLMLTGSADKTIKLWKAGRCERTFLGHEDCVRGLAILSETEFLSCANDASIRRWQITGECLEVYFGHTNYIYSISVFPNSKDFVTTAEDRSLRIWKHGECAQTIRLPAQSIWCCCVLENGDIVVGASDGIIRVFTESEERTASAEEIKAFERELSQATIDSKTGDLGDINAEQLPGREHLSEPGTREGQTRLIRDGERVEAYQWSVSDGRWIKIGDVVGSSGANQQTSGKVLYEGKEFDYVFSIDVNEGGPSYKLPYNVSDDPWLVAYNFLQKNDLNPMFLDQVAKFIIDNTKGQTLGLGNTSFSDPFTGGGRYVPGTSGPSNTVQTADPFTGAGRYMPGSAGMDTTMTGVDPFTGNSAYRSAASKTVNIYFPKKEALTFDQANPTQILGKLKELNGTAPEEKKLTEDDLVLLEKILSLICNNSSEKPTAQQLQILWKAINWPEDIVFPALDILRLSIKHPNVNENFCNEKGDQFSSHLINLLNPKGKPANQLLALRTFCNCFVSQAGQKLMMSQRESLMSHAIELKSGSNKNIHIALATLTLNYSVCFHKDHNIEGKAQCLSVISTILEVVQDLEATFRLLVALGTLISDDSNAIQLAKSLGVDSQIKKYVSVSEPAKVSECCRLVLHLL
WT + ISRIB/WT Cohen's d (WT MEF EVs): −2.39
ISRIB and DYT Parallel Direction (WT MEF EVs): YES
RTV Corrective Direction (DYT-TOR1A MEF EVs): YES
DYT + RTV/DYT Cohen's d (DYT-TOR1A MEF EVs): 8.69

B7: Dars (protein, UniProt Q922B2 1-501, looked up)
Aspartate--tRNA ligase, …: MPSTNASRKGQEKPREIVDAAEDYAKERYGISSMIQSQEKPDRVLVRVKDLTVQKADDVVWVRARVHTSRAKGKQCFLVLRQQQFNVQALVAVGDHASKQMVKFAANINKESIIDVEGVVRKVNQKIGSCTQQDVELHVQKIYVISLAEPRLPLQLDDAIRPEVEGEEDGRATVNQDTRLDNRVIDLRTSTSQAIFRLQSGICHLFRETLINKGFVEIQTPKIISAASEGGANVFTVSYFKNNAYLAQSPQLYKQMCICADFEKVFCIGPVFRAEDSNTHRHLTEFVGLDIEMAFNYHYHEVVEEIADTLVQIFKGLQERFQTEIQTVSKQFPCEPFKFLEPTLRLEYCEALAMLREAGVEMDDEEDLSTPNEKLLGRLVKEKYDTDFYVLDKYPLAVRPFYTMPDPRNPKQSNSYDMFMRGEEILSGAQRIHDPQLLTERALHHGIDLEKIKAYIDSFRFGAPPHAGGGIGLERVTMLFLGLHNVRQTSMFPRDPKRLTP
WT + ISRIB/WT Cohen's d (WT MEF EVs): −1.13
ISRIB and DYT Parallel Direction (WT MEF EVs): YES
RTV Corrective Direction (DYT-TOR1A MEF EVs): YES
DYT + RTV/DYT Cohen's d (DYT-TOR1A MEF EVs): 9.32

B8: Apex1 (protein, UniProt P28352 2-317, looked up)
DNA repair nuclease/redox …: PKRGKKAAADDGEEPKSEPETKKSKGAAKKTEKEAAGEGPVLYEDPPDQKTSPSGKSATLKICSWNVDGLRAWIKKKGLDWVKEEAPDILCLQETKCSENKLPAELQELPGLTHQYWSAPSDKEGYSGVGLLSRQCPLKVSYGIGEEEHDQEGRVIVAEFESFVLVTAYVPNAGRGLVRLEYRQRWDEAFRKFLKDLASRKPLVLCGDLNVAHEEIDLRNPKGNKKNAGFTPQERQGFGELLQAVPLADSFRHLYPNTAYAYTFWTYMMNARSKNVGWRLDYFLLSHSLLPALCDSKIRSKALGSDHCPITLYLAL
WT + ISRIB/WT Cohen's d (WT MEF EVs): −0.67
ISRIB and DYT Parallel Direction (WT MEF EVs): YES
RTV Corrective Direction (DYT-TOR1A MEF EVs): YES
DYT + RTV/DYT Cohen's d (DYT-TOR1A MEF EVs): 8.06

B9: Eif2b1 (protein, UniProt Q99LC8 1-305, looked up)
Translation initiation factor …: MEDGELIEYFKSQMKGDPKMASAVAAIQTLLEFLKRDKGETLQGLRANLTYAIKTLCGVDSSVAVSSGGELFLRFISLTSLEYSDYSKCKKIMIERGELFLRRISLSRNKIANLCHTFIKDGARILTHAYSRVVLRVLEEAVAAKKRFSVYITESQPDLSGKKMAKALSHLNVPVTVVLDAAVGYIMEKADLVIVGAEGVVENGGIINKIGTNQMAVCAKAQNKPFYVVAESFKFVRLFPLNQEDVPDKFKYKADTLKSVQTGQDLKEEHPWVDYTSPSLITLLFTDLGVLTPSAVSDELIKLYL
WT + ISRIB/WT Cohen's d (WT MEF EVs): −0.70
ISRIB and DYT Parallel Direction (WT MEF EVs): YES
RTV Corrective Direction (DYT-TOR1A MEF EVs): YES
DYT + RTV/DYT Cohen's d (DYT-TOR1A MEF EVs): 5.03

B10: Ephx1 (protein, UniProt Q9D379 1-455, looked up)
Epoxide hydrolase 1: MWLELILASVLGFVIYWFVSRDKEETLPLEDGWWGPGSKPSAKEDESIRPFKVETSDEEIKDLHQRIDRFRASPPLEGSRFHYGFNSSYLKKVVSFWRNEFDWRKQVEILNQYPHFKTKIEGLDIHFIHVKPPQLPSGRTPKPLLMVHGWPGSFYEFYKIIPLLTDPKTHGLSDEHVFEVICPSIPGYGFSEASSKKGLNSVATARIFYKLMSRLGFQKFYIQGGDWGSLICTNIAQMVPNHVKGLHLNMSFISRNIYSLTPLLGQRFGRFLGYTEKDLELLYPFKEKVFYNIMRESGYLHIQATKPDTVGCALNDSPVGLAAYILEKFSTWTKSEYRELEDGGLERKFSLEDLLTNIMIYWTTGTIVSSQRFYKENLGQGVMVHRHEGMKVFVPTGYSAFPSEILHAPEKWVKVKYPKLISYSYMERGGHFAAFEEPKLLAQDIRKFVSLAELQ
WT + ISRIB/WT Cohen's d (WT MEF EVs): −0.32
ISRIB and DYT Parallel Direction (WT MEF EVs): YES
RTV Corrective Direction (DYT-TOR1A MEF EVs): YES
DYT + RTV/DYT Cohen's d (DYT-TOR1A MEF EVs): 1.48
